Experimental data published in US20210380702A1 (Regeneron, published 2021).
Residue numbers refer to the chain shown, from its start.

B1: H2aM8314N (antibody, mouse IgG2, V domains shown)
VH: EVQLVESGGGVVRPGGSLRLSCAASGFTFDDYGMTWVRQAPGRGLEWVSGIHWHGKRTGYADSVKGRFTISRDNAKKSLYLQMNSLKGEDTALYHCVRGGMSTGDWFDPWGQGTLVIVSS
VL: DIQMTQSPSSLSASLGDRVTITCRASQSINSYLNWYQQKPGKAPKLLIYVASSLQSGVPSRFSGSGSGTEFTLTISNLQPEDFATYYCQQSYSTPPITFGQGTRLEIK
notes: also called H2M8314N
B2: H2aM8321N (antibody, mouse IgG2, V domains shown)
VH: EERLVESGGDLVQPGGSLRLSCAASGITVGTNYMNWVRQAPGKGLEWVSVISSGGNTHYADSVKGRFIMSRQTSKNTLYLQMNSLETEDTAVYYCARGIRGLDVWGQGTMVTVSS
VL: B1 VL with L15V, I29M, N30S, K42R, Y49F, V50A, E70D, N77S
notes: also called H2M8321N
B3: H2aM8317N (antibody, mouse IgG2, V domains shown)
VH: EVQLVESGGGLVQPGGSLRLSCAASGFTVGSNYMNWVRQAPGKGLEWVSVIYSGGSTYYADSVKGRFTISRLTSKNTLYLQMSSLRPEDTAVYYCARGIRGLDVWGQGTTVTVSS
VL: B1 VL with L15V, S28T, S31I, K42R, K45R, V50A, E70D, N77S, Q89H
notes: also called H2M8317N
B4: H2aM8323N (antibody, mouse IgG2, V domains shown)
VH: QVQLVQSGAEVKMPGSSVRVSCKASGGIFSSSTISWVRQAPGQGLEWMGEIIPVFGTVNYAQKFQDRVIFTADESTTTAYMELSSLKSGDTAVYFCARNWGLGSFYIWGQGTMVTVSS
VL: EIVLTQSPGTLSLSPGERATLSCRASQSFNFNYLAWYQQKPGQAPRLLIYGASSRATGIPDRFSGSGSGTDFTLTINRLEPEDFGVFYCQQYESAPWTFGQGTKVEIK
notes: also called H2M8323N
B5: H2aM8312N (antibody, mouse IgG2, V domains shown)
VH: QVHLVQSGAEVKKPGASVKVSCKASGYTFTGYYIHWVRQAPGHGLEWMGWLNPNTGTTKYIQNFQGRVTMTRDTSSSTAYMELTRLRSDDTAVYYCARDEDWNYGSWFDTWGQGTLVTVSS
VL: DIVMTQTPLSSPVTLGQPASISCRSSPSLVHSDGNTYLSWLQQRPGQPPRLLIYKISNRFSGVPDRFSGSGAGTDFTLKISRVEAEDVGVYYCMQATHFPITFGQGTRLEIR
notes: also called H2M8312N
B6: H1H9329P (antibody, human IgG1, V domains shown)
VH: EVQLVESGGGLVQSGGSLRLSCAASGFTFSSYWMSWVRQAPGKGLEWVANIKQDGSEKYYVDSVKGRFTISRDNAKNSLYLQMNSLRADDTAVYYCARDDIVVVPAPMGYYYYYFGMDVWGQGTTVTVSS
VL: DIQMTQSPSSLSASVGDRVTITCRASQGIRNDLGWYQQKPGKAPKRLIYAASSLQSGVPSRFSGSGSGTEFTLTISSLQPEDFATYYCLQHNSYPYTFGQGTKLEIK
B7: H1H9336P (antibody, human IgG1, V domains shown)
VH: EVQLVESGGGLVQPGRSLRLSCAASGFTFDDFAMHWVRQAPGKGLEWVSGISWTGGNMDYANSVKGRFTISREDAKNSLYLQMNSLRAADTALYYCVKDIRGIVATGGAFDIWGRGTMVTVSS
VL: DIQMTQSPSSLSASVGDRVTISCRASQTISTYLNWFQQKPGKAPKLLIYVVSSLQSGVPSRFSGSGSGTDFTLTISSLQPEDFATYYCQQSYSTPFTFGPGTKVDIK
B8: H2aM8310N (antibody, mouse IgG2, V domains shown)
VH: QVQLVQSGAEVKKPGASVQVSCKASGYSFTGYYIHWVRQAPGQGLEWMGWINPNSGTKKYAHKFQGRVTMTRDTSIDTAYMILSSLISDDTAVYYCARDEDWNFGSWFDSWGQGTLVTVSS
VL: DIVMTQTPLSSPVTLGQPASISCRSSQTLVHGDGNTYLSWIQQRPGQPPRLLIYKVSNQFSGVPDRFSGSGAGTDFTLKISRVEAEDVGLYFCMQATHFPITFGQGTRLEIK
notes: also called H2M8310N
B9: H1H8314N (antibody, human IgG1, V domains shown)
VH: B1 VH
VL: B1 VL
B10: H1H8323N (antibody, human IgG1, V domains shown)
VH: B4 VH
VL: B4 VL

Each binder was assayed against T1, recombinant human PD-L1 (amino acids 19-239 of NP_054862.1) with a C-terminal myc-myc-hexahistidine tag (human) (assay: SPR (Biacore), mAb captured, 37C).
T1 construct: also called hPD-L1-MMH; hPD-L1-MMH Monomer
Method: (§1) Binding association and dissociation rate constants (kₐ and kd, respectively), equilibrium dissociation constants and dissociation half-lives (KD and t_{1/2}, respectively) of antigen binding to purified anti-PD-L1 monoclonal antibodies were determined using a real-time surface plasmon resonance biosensor assay on a Biacore 4000 instrument. The Biacore sensor surface was either derivatized with polyclonal rabbit anti-mouse antibody (GE, #BR-1008-38) or with monoclonal mouse anti-human Fc antibody (GE, #BR-1008-39) to capture approximately 200-300 RUs of anti-PD-L1 monoclonal antibodies, expressed with either a mouse Fc or with human Fc, respectively. […] Different concentrations of PD-L1 reagents were injected over the anti-PD-L1 monoclonal antibody captured surface at a flow rate of 30 μL/min. The binding of the PD-L1 reagents to the captured monoclonal antibodies was monitored for 3 to 4 minutes while the dissociation of antibody bound PD-L1 reagents was monitored for 10 minutes in HBST running buffer (0.01 M HEPES pH 7.4, 0.15 M NaCl, 3 mM EDTA, 0.05% v/v Surfactant tween-20). Experiments were performed at either 25° C. or 37° C. Kinetic association (kₐ) and dissociation (kd) rate constants were determined by processing and fitting the data to a 1:1 binding model using Scrubber 2.0c curve fitting software. Binding dissociation equilibrium constants (KD) and dissociative half-lives (t_{1/2}) were then calculated from the kinetic rate constants as: KD (M)=kd/kₐ and t_{1/2} (min)=[In2/(60*kd)].

T1 sequence (chain, as listed by the source limits assumed): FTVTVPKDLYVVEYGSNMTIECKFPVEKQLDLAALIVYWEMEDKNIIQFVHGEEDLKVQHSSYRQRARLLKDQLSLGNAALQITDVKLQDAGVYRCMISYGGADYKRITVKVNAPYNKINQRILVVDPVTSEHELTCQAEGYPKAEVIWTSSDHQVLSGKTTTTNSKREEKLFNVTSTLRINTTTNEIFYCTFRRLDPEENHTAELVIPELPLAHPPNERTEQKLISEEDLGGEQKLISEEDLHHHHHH

| Binder | Kd [nM] | koff [s⁻¹] | kon [M⁻¹ s⁻¹] | t1/2 [min] |
| --- | --- | --- | --- | --- |
| B1 | 0.14 | 0.00015 | 1.07e+06 | 77 |
| B2 | 91.6 | 0.00929 | 101000 | 1.2 |
| B3 | 647 | 0.0585 | 90300 | 0.2 |
| B4 | 0.497 | 0.000684 | 1.38e+06 | 17 |
| B5 | 45.3 | 0.00403 | 88900 | 2.9 |
| B6 | 117 | 0.329 | 2.82e+06 | 0.04 |
| B7 | 0.733 | 0.000788 | 1.07e+06 | 15 |
| B8 | 9.7 | 0.00128 | 132000 | 9 |

These binders were tested against T2, Human PD-L1 Dimer (human, UniProt Q9NZQ7 19-239) (assay: SPR (Biacore), mAb captured, 37C).
T2 construct: also called hPD-L1 dimer; hPD-L1-hFc
Method: as §1

T2 sequence (Q9NZQ7 19-239): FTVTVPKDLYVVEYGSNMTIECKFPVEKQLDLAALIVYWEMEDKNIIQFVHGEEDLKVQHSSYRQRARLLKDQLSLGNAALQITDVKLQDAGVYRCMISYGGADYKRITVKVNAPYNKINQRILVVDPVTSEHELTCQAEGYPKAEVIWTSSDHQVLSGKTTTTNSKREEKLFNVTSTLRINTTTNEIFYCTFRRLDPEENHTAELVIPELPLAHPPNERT

| Binder | Kd [nM] | koff [s⁻¹] | kon [M⁻¹ s⁻¹] | t1/2 [min] |
| --- | --- | --- | --- | --- |
| B1 | 0.00591 | 2.3e-05 | 3.89e+06 | 503 |
| B2 | 0.285 | 0.000269 | 946000 | 43 |
| B3 | 1.36 | 0.000657 | 481000 | 18 |
| B4 | 0.028 | 0.000121 | 4.32e+06 | 96 |
| B5 | 0.732 | 0.000261 | 357000 | 44 |
| B6 | 0.689 | 0.00267 | 3.87e+06 | 4.3 |
| B7 | 0.0302 | 8.31e-05 | 2.75e+06 | 139 |
| B8 | 0.258 | 0.000124 | 481000 | 93 |

What follows are binders tested against T3, recombinant cynomolgus monkey PD-L1 with a C-terminal myc-myc-hexahistidine tag (cynomolgus monkey (Macaca fascicularis)) (assay: SPR (Biacore), mAb captured, 37C).
T3 construct: also called MfPD-L1-MMH; MfPD-L1-MMH Monomer
Method: as §1

T3 sequence (chain, as listed by the source limits assumed): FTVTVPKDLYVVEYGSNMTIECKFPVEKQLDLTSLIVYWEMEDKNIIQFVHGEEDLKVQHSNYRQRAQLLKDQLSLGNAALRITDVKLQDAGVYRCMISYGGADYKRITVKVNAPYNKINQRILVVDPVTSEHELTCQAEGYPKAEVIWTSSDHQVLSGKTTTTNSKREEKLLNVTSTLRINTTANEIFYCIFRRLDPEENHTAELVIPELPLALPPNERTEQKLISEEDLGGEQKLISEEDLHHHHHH

| Binder | Kd [nM] | koff [s⁻¹] | kon [M⁻¹ s⁻¹] | t1/2 [min] |
| --- | --- | --- | --- | --- |
| B1 | 0.142 | 0.000152 | 1.07e+06 | 76 |
| B2 | 51.1 | 0.00816 | 159000 | 1.4 |
| B3 | 179 | 0.0476 | 266000 | 0.2 |
| B4 | 29.5 | 0.0282 | 956000 | 0.4 |
| B5 | 32.7 | 0.00332 | 101000 | 3.5 |
| B6 | 137 | 0.364 | 2.66e+06 | 0.03 |
| B7 | 1.38 | 0.00125 | 909000 | 9.2 |
| B8 | 2.27 | 0.00107 | 471000 | 11 |

What follows are binders tested against T2, Human PD-L1 Dimer (assay: SPR (Biacore), mAb captured, 25C).
Method: as §1

| Binder | Kd [nM] | koff [s⁻¹] | kon [M⁻¹ s⁻¹] | t1/2 [min] |
| --- | --- | --- | --- | --- |
| B1 | 0.00426 | 1.35e-05 | 3.16e+06 | 859 |
| B2 | 0.353 | 0.000287 | 813000 | 40 |
| B3 | 1.25 | 0.00045 | 359000 | 26 |
| B4 | 0.00704 | 2.05e-05 | 2.91e+06 | 565 |
| B5 | 0.413 | 0.000102 | 247000 | 113 |
| B6 | 0.259 | 0.000768 | 2.97e+06 | 15 |
| B7 | 0.0786 | 0.000109 | 1.38e+06 | 106 |
| B8 | 0.183 | 5.71e-05 | 313000 | 202 |

Each binder was assayed against T3, recombinant cynomolgus monkey PD-L1 … (assay: SPR (Biacore), mAb captured, 25C).
Method: as §1

| Binder | Kd [nM] | koff [s⁻¹] | kon [M⁻¹ s⁻¹] | t1/2 [min] |
| --- | --- | --- | --- | --- |
| B1 | 0.0724 | 7e-05 | 966000 | 165 |
| B2 | 29.9 | 0.00402 | 134000 | 2.9 |
| B3 | 226 | 0.0238 | 106000 | 0.5 |
| B4 | 15.9 | 0.00868 | 547000 | 1.3 |
| B5 | 8.42 | 0.000597 | 70900 | 19 |
| B6 | 76.9 | 0.135 | 1.76e+06 | 0.09 |
| B7 | 0.876 | 0.000594 | 679000 | 19 |
| B8 | 2.97 | 0.000306 | 103000 | 38 |

The binders below were run against T4, recombinant cynomolgus monkey PD-L1 with a C-terminal mouse IgG2a Fc tag (cynomolgus monkey (Macaca fascicularis)) (assay: SPR (Biacore), mAb captured, 25C).
T4 construct: also called MfPD-L1-mFc; monkey PD-L1-mFc
Method: as §1

T4 sequence (chain, as listed by the source limits assumed): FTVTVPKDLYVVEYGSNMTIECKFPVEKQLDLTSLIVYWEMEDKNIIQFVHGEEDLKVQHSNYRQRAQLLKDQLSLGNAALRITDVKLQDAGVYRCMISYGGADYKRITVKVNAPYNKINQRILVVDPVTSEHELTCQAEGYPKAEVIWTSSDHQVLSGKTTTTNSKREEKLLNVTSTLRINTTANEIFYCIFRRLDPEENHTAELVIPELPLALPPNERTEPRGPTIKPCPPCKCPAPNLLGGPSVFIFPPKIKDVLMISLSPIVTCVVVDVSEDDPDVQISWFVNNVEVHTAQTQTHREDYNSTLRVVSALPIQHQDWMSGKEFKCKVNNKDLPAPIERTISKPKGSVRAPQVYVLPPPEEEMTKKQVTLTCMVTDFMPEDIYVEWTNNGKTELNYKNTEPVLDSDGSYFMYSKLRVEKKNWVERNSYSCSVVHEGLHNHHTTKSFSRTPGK

| Binder | Kd [nM] | koff [s⁻¹] | kon [M⁻¹ s⁻¹] | t1/2 [min] |
| --- | --- | --- | --- | --- |
| B9 | 0.0263 | 6.77e-05 | 2.58e+06 | 171 |
| B10 | 0.0231 | 6.16e-05 | 2.67e+06 | 188 |
| B6 | 0.386 | 0.000672 | 1.74e+06 | 17 |
| B7 | 0.0622 | 6.16e-05 | 990000 | 188 |
